Source: US20230380451A1, “MEANS AND METHODS TO DETOXIFY MYCOTOXINS” (priority 2020, published 2023)

Legend:
[1] = tested on: translation of firefly luciferase; type: biochemical
Protocol: To determine whether or not the conversion of DON into epi-THS through Akr I-III and the conversion of DON into THS through ADH-Lk, as described herein, leads to a decrease in toxicity, two assays were performed. The in vitro TNT® Quick Coupled Transcription/Translation System (Promega) was used to measure how well the metabolites inhibit protein synthesis and the CeIITox™ Green Cytotoxicity Assay (Promega; […].
For the in vitro transcription/translation assay, 40 μl of the TNT T7 quick master mix were mixed with 2 μl firefly luciferase encoding DNA and with 4 μl metabolites to obtain final concentrations from 0.01 μM-150 μM in the reaction. Reactions lacking metabolites were the reference for maximum luminescence output. Reactions were incubated at 30° C. for 90 min to allow for transcription of luciferase gene and subsequent translation. In an opaque (white) 96-well plate (Greiner Bio One) 100 μl Luciferase reagent where mixed with 4 μl of the reactions and immediately placed into a Synergy HT plate reader (Biotek) to read luminescence with a 2 sec and a 10 sec measurement delay. […].

[2] = DON transformation assay with ADH-Lk; type: biochemical; conditions: for DON / THS [peak area]: 30° C.
Protocol: . All components of the reaction except of isopropanol and NADP+ were mixed on ice and a 0 minutes sample was removed (mix sample 1:1 (v/v) with 100% methanol to stop any reaction). Immediately thereafter, reaction mixtures were transferred to the heating block and the reaction was started by adding NADP+ and IPA. The reaction was allowed to proceed for 22 hours at 30° C. A control reaction with the same set up, but lacking the enzyme was set up in parallel. Samples were removed in regular intervals in order to monitor the progression of the reaction and immediately mixed 1:1 (v/v) with 100% methanol to stop the reaction. They were subsequently analyzed using the HPLC-MS/MS method described in below.
For HPLC-MS/MS analysis, DON and THS were separated on a 150 mm×2.1 mm Phenomenex Kinetex Biphenyl column with a particle size of 2.6 μm. The mobile phase consisted of a mixture of methanol and ultrapure water with 0.1% (v/v) acetic acid. Ions were generated using electro spray ionization (ESI) in negative ionization mode. The quantification is done using a QTrap and/or triple quadrupole mass detector. […].

## 8-amino-DON [Akr 8-amino-DON]
[1]
  times weaker effect on luminescence output compared to DON: 5-10 times

B1: ADH-Lk: artificial amino acid sequence, variant of a wild type alcohol dehydrogenase (protein)
chain: MTDRLKGKVAIVTGGTHGIGLAIATKFVTEGAKVVITGRRADVGEKAAKSIGGTDVIRFVQHDVSDEAGWGKLFDTTEETFGPVTTLVNNAGIGYRKSVEDTTTEEWRKLLSVNLDGVFFGTRLGIQRMKCKGLGASIINMSSILGQVGDPATGAYSASKGAVRIMSKSAALLCALKDYDVRVNTVHPGPIKTPLMDDMPGAEEMMSQRTKTPMGHIGEPNDIAWVCVYLASDESKFATGAEFVVDGGYTAQ
modifications: ADH-Lk
[2]; time 0 h
  DON: 399.9 µg/L
[2]; time 3.5 h
  DON: 387.1 µg/L
  THS [peak area]: 7.88E+03
[2]; time 22 h
  DON: 296.6 µg/L
  THS [peak area]: 1.13E+05
[2]; presence of enzyme in the reaction
  production of THS from DON: leads to the production of THS from DON
